Literature values as cited in article PMC9523730.

Molecular target: 14-3-3ζ (Homo sapiens) (UniProt P63104)
Test: various biophysical approaches

Kd: 5 nM
Substance: 14-3-3ζ (from UniProt P63104)
